Laboratory results from patent publication US20090005253A1 (AVENTIS PHARMA S A, published 2009).

Columns and labels:
[1] = biological target: T1, DNA-binding domain (DBD) of GAL4p expressed alone from pDBT (Saccharomyces cerevisiae, UniProt P04386 1-147, limits assumed); test: reverse two-hybrid UI strain yRB49; growth not affected on medium with 1 mM 3-AT
T1 construct: Negative control partner

[2] = biological target: T2, fusion protein DBD-mdm2 (GAL4 DBD fused to the entire Mdm2 human protein) (Saccharomyces cerevisiae; human, UniProt P04386 1-147; Q00987 1-491, limits assumed); test: yeast two-hybrid control (pTAL20+pDBT-mdm2), URA3 reporter in strain Y187
T2 construct: also called pDBT-mdm2
Method: (§1) The activity of the constructs is first verified (FIGS. 6A and 6F). […] Two clones of each of these transformants are cultured on minimum medium with and without uracil ((FIGS. 6A and 6F).

[3] = biological target: T1, DNA-binding domain (DBD) of GAL4p …; test: yeast two-hybrid control (pRB34+pDBT), URA3 reporter in strain Y187
Method: as §1
Firstly, the activity of the constructs was verified. […] Two clones cotransformed by each of these pairs of plasmids are selected. Their capacity to grow on minimum medium with and without uracil is studied.

Row | Binder | binding result [1] | binding result [2] | binding result [3]
1 | activation domain (AD) of GAL4p expressed alone from pTAL20 (other, Saccharomyces cerevisiae, UniProt P04386 768-881, looked up, Negative control partner) ANFNQSGNIADSSLSFTFTNSSNGPNLITTQTNSQALSQPIASSNVHDNFMNNEITASKIDDGNNSKPLSPGWTDQTAYNAFGITTGMFNTTTMDDVYNYLFDDEDTPPNPKKE | no binding | no binding | 
2 | fusion protein AD-Fe65 (GAL4 activation domain fused to amino acids 152 to 708 of Fe65) (other, also called pRB34) MDKAELIPEPPKKKRKVELGTAANFNQSGNIADSSLSFTFTNSSNGPNLITTQTNSQALSQPIASSNVHDNFMNNEITASKIDDGNNSKPLSPGWTDQTAYNAFGITTGMFNTTTMDDVYNYLFDDEDTPPNPKKEIEFKAAGEAEEEEEDDDDEEEEEDLSSPPGLPEPLESVEAPPRPQALTDGPREHSKSASLLFGMRNSAASDEDSSWATLSQGSPSYGSPEDTDSFWNPNAFETDSDLPAGWMRVQDTSGTYYWHIPTGTTQWEPPGRASPSQGSSPQEESQLTWTGFAHGEGFEDGEFWKDEPSDEAPMELGLKEPEEGTLTFPAQSLSPEPLPQEEEKLPPRNTNPGIKCFAVRSLGWVEMTEEELAPGRSSVAVNNCIRQLSYHKNNLHDPMSGGWGEGKDLLLQLEDETLKLVEPQSQALLHAQPIISIRVWGVGRDSGRDFAYVARDKLTQMLKCHVFRCEAPAKNIATSLHEICSKIMAERRNARCLVNGLSLDHSKLVDVPFQVEFPAPKNELVQKFQVYYLGNVPVAKPVGVDVINGALESVLSSSSREQWTPSHVSVAPATLTILHQQTEAVLGECRVRFLSFLAVGRDVHTFAFIMAAGPASFCCHMFWCEPNAASLSEAVQAACMLRYQKCLDARSQASTSCLPAPPAESVARRVGWTVRRGVQSLWGSLKPKRLGAHTP |  |  | no binding
